# Test results published in US20220002427A1 (ENGMAB SARL, published 2022).
# Residue numbers refer to the chain shown, from its start. Values joined by “and” are separate entries in the source; they are usually repeats but may differ in a detail not shown here. Equal values may be shown once.
# T1: human BCMA on cells (human, UniProt Q02223 1-184)
# T1 construct: whole, on cells; also called huBCMA on HEK cells; HEK-huBCMA cells
# T1 sequence (looked up): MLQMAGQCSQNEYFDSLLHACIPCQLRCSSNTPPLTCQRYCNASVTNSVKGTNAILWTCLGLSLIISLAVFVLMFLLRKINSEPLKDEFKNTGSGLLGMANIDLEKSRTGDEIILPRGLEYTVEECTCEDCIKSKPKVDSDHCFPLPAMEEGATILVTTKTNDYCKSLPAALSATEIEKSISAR
# T2: recombinant human BCMA Fc(kih) (human, UniProt Q02223 4-53, site-specifically biotinylated at the C-terminal avi-tag ; Biotin on the avi-tag at the C-terminus of the Fc knob chain (tag and Fc left out).)
# T2 construct: Knobs-into-holes heterodimer carrying one BCMA ectodomain; also called huBCMA Fc(kih); huBCMA; not shown: human IgG1 hinge-Fc knob chain with C-terminal avi-tag, and the unfused Fc hole chain
# T2 chain: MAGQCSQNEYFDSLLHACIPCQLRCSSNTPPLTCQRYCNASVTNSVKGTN
# B1: Mab 21 IgG (antibody, V domains shown)
# VH: EVQLLESGGGLVQPGGSLRLSCAASGFTFSDNAMGWVRQAPGKGLEWVSAISGPGSSTYYADSVKGRFTISRDNSKNTLYLQMNSLRAEDTAVYYCAKVLGWFDYWGQGTLVTVSS
# VL: EIVLTQSPGTLSLSPGERATLSCRASQSVSEYYLAWYQQKPGQAPRLLIEHASTRATGIPDRFSGSGSGTDFTLTISRLEPEDFAVYYCQQYGYPPDFTFGQGTKVEIK
# notes: also called antibody 21
# B2: Mab 14 (antibody, V domains shown)
# VH: B1 VH with S30Y, D31T, S52N, G53R, P54F, S56G
# VL: B1 VL with E31D, Y32E, A35S, E50H, H51S, T75A
# notes: IgG variant (VH/VL combination)
# B3: Mab 27 IgG (antibody, V domains shown)
# VH: EVQLLESGGGLVQPGGSLRLSCAASGFTFSSAPMGWVRQAPGKGLEWVSAISYIGHTYYADSVKGRFTISRDNSKNTLYLQMNSLRAEDTAVYYCAKVLGWFDYWGQGTLVTVSS
# VL: B1 VL
# B4: Mab 22 IgG (antibody, V domains shown)
# VH: B1 VH
# VL: B1 VL with E31S, E50S, H51G, S53G, T54S
# notes: also called antibody 22; clone 22
# B5: Mab 44 (antibody, V domains shown)
# VH: B3 VH
# VL: B1 VL with E31D, Y32E, A35S, E50H, H51S, T75A
# notes: IgG variant
# B6: Mab 39 IgG (antibody, V domains shown)
# VH: B1 VH with S30T, D31Q, G53P, P54T, S56F
# VL: B1 VL
# B7: Mab 42 IgG (antibody, V domains shown)
# VH: B1 VH
# VL: B1 VL with E31D, Y32E, A35S, E50H, H51S, T75A
# notes: also called antibody 42; clone 42
# B8: Mab 33 IgG (antibody, V domains shown)
# VH: B1 VH with S30Y, D31T, S52N, G53R, P54F, S56G
# VL: B1 VL
# B9: Mab 34 (antibody, V domains shown)
# VH: B1 VH with S30Y, D31T, S52N, G53R, P54F, S56G
# VL: B1 VL with E31S, E50S, H51G, S53G, T54S
# notes: IgG variant
# B10: Mab 28 (antibody, V domains shown)
# VH: B3 VH
# VL: B1 VL with E31S, E50S, H51G, S53G, T54S
# notes: IgG variant
# Key:
# [1] = target: T3, recombinant cynomolgus BCMA Fc(kih) (cynomolgus, UniProt A0A2K5UD97 4-51); test: ratio of SPR KD values (KD cynomolgus BCMA / KD human BCMA), reference human BCMA Fc(kih)
# Protocol: (§1) The avidity of the interaction between anti-BCMA antibodies and recombinant BCMA Fc(kih) (human and cynomolgus) was determined. Biotinylated recombinant human and cynomolgus BCMA Fc(kih) were directly coupled on a SA chip following instructions (Biacore, Freiburg/Germany). The immobilization level ranged from 200 to 700 RU. […] The dissociation was monitored for 180 seconds. Bulk refractive index differences were corrected for by subtracting the response obtained on the reference flow cell. Here, the anti-BCMA antibodies were flown over an empty surface previously activated and deactivated as described in the standard amine coupling kit. Apparent kinetic constants were derived using the Biacore T200 Evaluation Software (vAA, Biacore AB, Uppsala/Sweden), to fit rate equations for 1:1 Langmuir binding by numerical integration, despite the bivalency of the interaction for comparison purposes. The affinity of the interaction between anti-BCMA antibodies and recombinant human BCMA Fc(kih) was also determined. Anti-human Fab antibody (GE Healthcare) was directly coupled on a CMS chip at pH 5.0 using the standard amine coupling kit (Biacore, Freiburg/Germany). The immobilization level was about 6500 RU. […] The dissociation was monitored for 120 seconds. Bulk refractive index differences were corrected for by subtracting the response obtained on reference flow cell. […] Kinetic constants were derived using the Biacore T100 Evaluation Software (vAA, Biacore AB, Uppsala/Sweden), to fit rate equations for 1:1 Langmuir binding by numerical integration (Table 4).
# Based on the affinity values described in Example 2, the affinity of anti-BCMA antibodies to human BCMA vs. cynomolgus BCMA were compared and cyno/hu affinity ratio (gap) values were calculated (Table 5).
# [2] = target: T1, human BCMA on cells; test: flow cytometry on HEK-huBCMA cells, PE anti-human Fc detection
# [3] = target: T2, recombinant human BCMA Fc(kih); test: SPR one-shot kinetics (ProteOn XPR36), IgG captured from HEK293 supernatant via anti-human F(ab)2, BCMA as analyte
# Protocol: (§2) All experiments were performed at 25° C. using PBST as running buffer (10 mM PBS, pH 7.4 and 0.005% (v/v) Tween®20). A ProteOn XPR36 biosensor equipped with GLC and GLM sensor chips and coupling reagents (10 mM sodium acetate, pH 4.5, sulfo-N-hydroxysuccinimide, 1-ethyl-3-(3-dimethylaminopropyl)-carbodiimide hydrochloride [EDC] and ethanolamine) was purchased from BioRad Inc. (Hercules, Calif.). Immobilizations were performed at 30 μl/min. on a GLM chip. pAb (goat) anti hu IgG, F(ab)2 specific Ab (Jackson) was coupled in vertical direction using a standard amine-coupling procedure: all six ligand channels were activated for 5 min with a mixture of EDC (200 mM) and sulfo-NHS (50 mM). Immediately after the surfaces were activated, pAb (goat) anti hu IgG, F(ab)2 specific antibody (50 μg/ml, 10 mM sodium acetate, pH 5) was injected across all six channels for 5 min. Finally, channels were blocked with a 5 min injection of 1 M ethanolamine-HCl (pH 8.5). […] One-shot kinetic measurements were performed by injection of a dilution series of human, cyno and mouse BCMA (50, 10, 2, 0.4, 0.08, 0 nM, 50 μl/min) for 3 min along the vertical channels. Dissociation was monitored for 5 min Kinetic data were analyzed in ProteOn Manager v. 2.1. Processing of the reaction spot data involved applying an interspot-reference and a double-reference step using an inline buffer blank (Myszka, 1999). The processed data from replicate one-shot injections were fit to a simple 1:1 Langmuir binding model without mass transport (O'Shannessy et al., 1993).
# [4] = target: T4, murine BCMA extracellular domain, monomeric Fc-fusion (murine, UniProt O88472 1-49, site-specifically biotinylated at the C-terminal avi-tag); test: as above
# T4 construct: extracellular domain; also called muBCMA; mouse BCMA; not shown: hinge and Fc of human IgG1, knob chain; avi-tag; unfused human IgG1 Fc portion (hole chain)
# Protocol: as §2
# [5] = target: T3, recombinant cynomolgus BCMA Fc(kih); test: as above
# Protocol: as §2
# [6] = target: T2, recombinant human BCMA Fc(kih); test: SPR (Biacore T200), IgG captured via anti-human Fab, BCMA Fc(kih) as analyte, 1:1 Langmuir fit
# Protocol: as §1, with “Assessment of binding of anti-BCMA antibodies to recombinant BCMA by surface plasmon resonance (SPR) as follow. […] The avidity” for “The avidity”
# [7] = target: T3, recombinant cynomolgus BCMA Fc(kih); test: as above
# Protocol: as §1, with “Assessment of binding of anti-BCMA antibodies to recombinant BCMA by surface plasmon resonance (SPR) as follow. […] The avidity” for “The avidity”
# T4 sequence (O88472 whole entry, the tested form may be a part): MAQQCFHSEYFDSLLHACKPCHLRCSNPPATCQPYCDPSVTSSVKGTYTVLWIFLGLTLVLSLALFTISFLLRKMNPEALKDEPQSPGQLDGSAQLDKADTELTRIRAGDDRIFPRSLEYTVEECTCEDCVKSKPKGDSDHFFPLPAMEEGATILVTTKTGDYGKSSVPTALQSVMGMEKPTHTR
# T3 sequence (A0A2K5UD97 entry or part of it): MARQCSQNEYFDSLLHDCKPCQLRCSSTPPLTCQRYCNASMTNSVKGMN
Binder,Affinity cyno/hu gap [1],EC50 [2],Kd [3],Kd [4],Kd [5],Kd [6],koff [6],kon [6],Kd [7],koff [7],kon [7]
B1,9.3 fold,2.46 nM and 0.35 µg/mL,0.028 nM,0.73 nM,0.051 nM,0.0516 nM,4.39e-05 s⁻¹,851000 M⁻¹ s⁻¹,0.478 nM,0.000235 s⁻¹,491000 M⁻¹ s⁻¹
B2,–,1.47 nM and 0.21 µg/mL,–,–,–,–,–,–,–,–,–
B3,12.7 fold,10.6 nM and 1.52 µg/mL,0.00039 nM,0.97 nM,0.1 nM,0.165 nM,5.93e-05 s⁻¹,359000 M⁻¹ s⁻¹,2.11 nM,0.000455 s⁻¹,216000 M⁻¹ s⁻¹
B4,15.4 fold,2.08 nM and 0.3 µg/mL,0.048 nM,0.9 nM,–,0.0633 nM,5.15e-05 s⁻¹,814000 M⁻¹ s⁻¹,0.974 nM,0.000442 s⁻¹,454000 M⁻¹ s⁻¹
B5,–,1.55 nM and 0.22 µg/mL,–,–,–,–,–,–,–,–,–
B6,14 fold,1.73 nM and 0.25 µg/mL,0.062 nM,–,0.27 nM,0.155 nM,5.58e-05 s⁻¹,361000 M⁻¹ s⁻¹,2.17 nM,0.000467 s⁻¹,215000 M⁻¹ s⁻¹
B7,1.7 fold,2.1 nM and 0.3 µg/mL,0.23 nM,2.5 nM,0.39 nM,0.371 nM,0.000298 s⁻¹,803000 M⁻¹ s⁻¹,0.641 nM,0.000453 s⁻¹,707000 M⁻¹ s⁻¹
B8,4.2 fold,1.18 nM and 0.17 µg/mL,0.017 nM,0.49 nM,0.034 nM,0.178 nM,3.55e-05 s⁻¹,200000 M⁻¹ s⁻¹,0.739 nM,9.76e-05 s⁻¹,132000 M⁻¹ s⁻¹
B9,–,1.24 nM and 0.18 µg/mL,–,–,–,–,–,–,–,–,–
B10,–,11.3 nM and 1.63 µg/mL,–,–,–,–,–,–,–,–,–
